Experimental findings from patent US20230228751 (APTAMER DIAGNOSTICS LIMITED, published 2023) are described below.

Assay in all cases: BLI
In data set [1] the target is SARS-CoV-2 spike S1 subunit (SARS-CoV-2, UniProt P0DTC2 SEQ:1-670). As to conditions: tags: His tag, SinoBiological 40591-V08B1; label: 5'-biotin.
The target of a further data set is SARS-CoV-2 spike RBD (SARS-CoV-2, UniProt P0DTC2 SEQ:1-223). As to conditions: tags: His tag; SinoBiological 40592-V08H; label: 5' biotin.
Data set [2] concerns the target SARS-CoV spike S1 subunit (SARS-CoV, UniProt P59594 SEQ:14-667). Particulars: tags: SinoBiological; label: 5' biotin.
Data set [3] addresses SARS-CoV-2 spike S2 subunit (SARS-CoV-2, UniProt P0DTC2 SEQ:1-528). Particulars: label: 5'-biotin.

B1: S1_E10 (ssDNA)
DNA: CCAGTGTAGACTACTCAATGCTGTGTTGACTTGACCTTGGATTATGGGTTTGGGCGGGAGGGTACTATCCACAGGTCAACC
As to B1, the binding result in data set [1] is “binds”; with SARS-CoV-2 spike RBD, “binds”; in data set [2], “no binding”.

B2: S1_E9 (ssDNA)
DNA: CCAGTGTAGACTACTCAATGCGGCTTCGAGAGGGGGGGCGGGTAAAAAGTCCATTGCCCTAGTACTATCCACAGGTCAACC
Regarding B2, the figures for the binding result (in data set [1]; in the data set with SARS-CoV-2 spike RBD; in data set [2]) were “binds”, “binds” and “no binding”, respectively.

B3: S2_B1_F12 (ssDNA)
DNA: CCAGTGTAGACTACTCAATGCCGTGGACTGGTCGGGTTTGGATTCGGCAGATGAATCAGTAGTA
As to B3, the binding result in data set [3] is on record as “binds”.
On the same count and under the same terms, with TTGACCTCTGGATATGGGTGGGAGGGATGGGT (ssDNA) [S2_G1_F21] the entry was “binds”.

B4: S1_F11 (ssDNA)
DNA: CCAGTGTAGACTACTCAATGCGTGGGAAGGGTGGGCGGGAGCATTGATAACTTCGGAGGAGCGTACTATCCACAGGTCAACC
As for B4, the binding result was “binds” in data set [1], “binds” with SARS-CoV-2 spike RBD and “no binding” in data set [2].

B5: S1_F5 (ssDNA)
DNA: CCAGTGTAGACTACTCAATGCGTGTGGTAACCTTGACCTTGGATTATGGGTTTGGGCGGGCGGGTACTATCCACAGGTCAACC
B5: the binding result is given as “binds” in data set [1], “binds” in the data set with SARS-CoV-2 spike RBD and “no binding” in data set [2].

B6: S1_F3-A (ssDNA)
DNA: CCAGTGTAGACTACTCAATGCGGTATGAATATGATCGGCCCTATCCCTTCAGCTATTCCGGGTACTATCCACAGGTCAACC
For B6, the binding result in data set [1] is recorded as “binds”; in the data set with SARS-CoV-2 spike RBD, “binds”; in data set [2], “no binding”.

B7: S1_E2 (ssDNA)
DNA: CCAGTGTAGACTACTCAATGCGTGTGGTGACCTTGACCTCTGGATATGGGTGGGAGGGGCGGGTACTATCCACAGGTCAACC
Turning to B7, the binding result in data set [1] is on record as “binds”; in the data set with SARS-CoV-2 spike RBD, “binds”; in data set [2] it was “no binding”.

B8: S2_A2_F12 (ssDNA)
DNA: CCAGTGTAGACTACTCAATGCCGATGGGTCGGGGGGGTGGGTAGGCATTGATCGCTCCTTTCGT
For B8, the binding result in data set [3] is recorded as “binds”.

B9: S1_F3-B (ssDNA)
DNA: CCAGTGTAGACTACTCAATGCGTGGGATGGGTGGGTGGGAGCATTGATAACTCGGAGGAGCGTACTATCCACAGGTCAACC
In the case of B9, the binding result in data set [1] is “binds”; with SARS-CoV-2 spike RBD, “binds”; in data set [2], “no binding”.

B10: S1_F12 (ssDNA)
DNA: CCAGTGTAGACTACTCAATGCGTGGGAAGGGAGGGCGGGAGCATTGATAACTCGGAGGAGCGTACTATCCACAGGTCAACC
With B10, the values for the binding result (in data set [1]; with SARS-CoV-2 spike RBD; in data set [2]) were “binds”, “binds” and “no binding”, respectively.
